# Experimental data reported in ChEMBL document CHEMBL2074420, “Taxol transport by human intestinal epithelial Caco-2 cells” (Drug Metab Dispos, 1998).
# Tested on: CC(=O)O[C@H]1C(=O)[C@@]2(C)[C@H]([C@H](OC(=O)c3ccccc3)[C@]3(O)C[C@H](OC(=O)[C@H](O)[C@@H](NC(=O)c4ccccc4)c4ccccc4)C(C)=C1C3(C)C)[C@]1(OC(C)=O)CO[C@@H]1C[C@@H]2O
# Test: TP_TRANSPORTER: transepithelial transport (basal to apical) in Caco-2 cells
# Format: functional, cell-based
substance,measurement,value
ATP-dependent translocase ABCB1 (Homo sapiens),Km,16.5 µM
